Measurements as given in patent US20100303724A1.
One block for each substance: values may come before it.

What was measured:
biotin-collagelin [1] = assay: SPR; biotin-collagelin on a streptavidin sensorchip, IgG 1.25 to 10 µg/mL
biotin-collagelin [2] = assay: SPR
biotin-collagelin [3] = assay: SPR; collagen injected on biotin-collagelin on a streptavidin sensorchip

Sequence of biotin-collagelin (peptide, as listed by the source): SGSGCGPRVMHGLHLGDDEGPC

Kd (biotin-collagelin [1]): 1 µM
Substance: anti-human platelet GPVI 9O12.2 IgG (antibody)

Kd (biotin-collagelin [2]): 18.3 µM
Substance: murine laminin (Gibco)

RU bound (biotin-collagelin [3]): 10 RU
Substance: type I equine fibrillar collagen (Collagen Horm, Nycomed)
